These results are taken from patent US20190270815A1 (published 2019).

B1: 1.103.11 hAb (antibody, V domains shown)
VH: QLQLQESGPGLVKPSETLTLTCTVSADSISSTTYYWVWIRQPPGKGLEWIGSISYSGSTYYNPSLKSRVTVSVDTSKNQFSLKLNSVAATDTALYYCARHLGYNGRYLPFDYWGQGTLVTVSS
VL: QSALTQPASVSGSPGQSITISCTGTSSDVGFYNYVSWYQQHPGKAPELMIYDVSNRPSGVSDRFSGSKSGNTASLTISGLQAEDEADYYCSSYTNISTWVFGGGTKLTVL
B2: 1.7.3 hAb (antibody, V domains shown)
VH: B1 VH with A26G, S58N, V71I, Q79H, N85S
VL: B1 VL with S54T, N95S
B3: 1.153.7 hAb (antibody, V domains shown)
VH: EVQLLESGGGLVQPGGSLRLSCAASGFTFSSHAMSWVRQAPGKGLEWVSTITGGGGSIYYADSVKGRFTISRDNSKNTLYLQMNSLRAEDTAVYYCAKNRAGEGYFDYWGQGTLVTVSS
VL: SYELTQPLSVSVALGQTARITCGGDNIGNKDVHWYQQKPGQAPVLVIYRDSNRPSGIPEGFSGSNSGNTATLTISRAQAGDEADYYCQVWDSIWVFGGGTKLTVL
B4: 1.139.15 hAb (antibody, V domains shown)
VH: QLQLQESGPGLVKPSETLSLTCTVSGGSISSTTYYWGWIRQPPGKGLEWIGSISYSGTTYYNPSLKSRVTIPVDTSKNQISLKLSSVTAADTSLYYCARHLGYNSNWYPFDYWGQGTLVTVSS
VL: QSALTQPPSVSGSPGQSVTISCTGTSSDVGSYNRVSWYQQPPGTAPEVIIYEVSNRPSGVPDRFSGSKSGNTASLTISGLQAEDEADYYCSSYTSSSTWVFGGGTKLTVL
B5: 1.49.9 hAb (antibody, V domains shown)
VH: QLQLQESGPGLVKPSETLSLTCTVSGGSISSSTYYWGWIRQPPGKGLEWIGSISYSGSTYYNPSLKSRVTISVDTSKNQFSLKLSSVTDADTAVYYCARHLGYNGRYLPFDYWGQGTLVTVSS
VL: B1 VL with L48V, N95S

Where a chain is given by its changes, count along the chain named.

For the first assay, the target named is recombinant human PD-1 (human, UniProt Q15116 25-167). The assay can be described thus: SPR. In general terms: SPR reads the build-up and loss of mass on a sensor chip optically.
Chain of recombinant human PD-1 (Q15116 25-167): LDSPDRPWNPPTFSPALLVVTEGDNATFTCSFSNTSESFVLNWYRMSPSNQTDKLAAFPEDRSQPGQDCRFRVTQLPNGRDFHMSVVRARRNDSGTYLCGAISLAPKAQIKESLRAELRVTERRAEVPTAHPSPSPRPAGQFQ
The term Kd denotes the equilibrium constant for the complex coming apart. As to B1, the Kd amounted to 0.175 nM.
On the same count and under the same terms, next, B2: 0.176 nM; B3: 2.79 nM; B4: 3.71 nM.
Still for that read-out and setting: next, B5: 1.07 nM.

The target in a further assay is T1, human PD-1 expressed on cells (human, UniProt Q15116 25-288). The experiment in a line: FACS.
T1 sequence (Q15116 25-288): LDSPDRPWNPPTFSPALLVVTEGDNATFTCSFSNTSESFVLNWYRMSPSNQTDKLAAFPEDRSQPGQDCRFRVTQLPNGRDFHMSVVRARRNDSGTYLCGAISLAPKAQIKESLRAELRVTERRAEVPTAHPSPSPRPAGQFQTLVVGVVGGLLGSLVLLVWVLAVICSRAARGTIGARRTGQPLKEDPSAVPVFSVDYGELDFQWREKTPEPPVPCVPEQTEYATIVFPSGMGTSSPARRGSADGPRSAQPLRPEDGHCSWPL
In general, EC50 refers to the concentration that produces a half-maximal response. B1 returned a 50% effective concentration (EC50) of 2.09 nM.
The same measure, in the same setting: next, B2: 2.44 nM; B3: 2.62 nM; B4: 1.92 nM.
On the same count and under the same terms, next, B5: 2.15 nM.

Another assay addresses T1, human PD-1 expressed on cells. The assay can be described thus: FACS blocking of PD-L1 binding.
As a reminder, the IC50 is the point on the concentration scale where inhibition reaches its midpoint. Read a low IC50 as inhibition by little substance. The molecule B1 yielded an IC50 of 4.44 nM.
On the same count and under the same terms, next, B2: 3.51 nM; B3: 4.49 nM.
Same read-out and setting: next, B4: 3.1 nM; B5: 4.21 nM.
